This passage reports single-channel open probability (Po) in planar lipid bilayers with 1 uM calmodulin, 40 nM free Ca2+, 2 mM ATP results from publication PMC7864917.

This assay addresses wild-type pig RyR1 (ryanodine receptor 1) (pig (purified from porcine skeletal muscle)) (UniProt P16960).
Chain of UniProt P16960 (P16960 whole entry): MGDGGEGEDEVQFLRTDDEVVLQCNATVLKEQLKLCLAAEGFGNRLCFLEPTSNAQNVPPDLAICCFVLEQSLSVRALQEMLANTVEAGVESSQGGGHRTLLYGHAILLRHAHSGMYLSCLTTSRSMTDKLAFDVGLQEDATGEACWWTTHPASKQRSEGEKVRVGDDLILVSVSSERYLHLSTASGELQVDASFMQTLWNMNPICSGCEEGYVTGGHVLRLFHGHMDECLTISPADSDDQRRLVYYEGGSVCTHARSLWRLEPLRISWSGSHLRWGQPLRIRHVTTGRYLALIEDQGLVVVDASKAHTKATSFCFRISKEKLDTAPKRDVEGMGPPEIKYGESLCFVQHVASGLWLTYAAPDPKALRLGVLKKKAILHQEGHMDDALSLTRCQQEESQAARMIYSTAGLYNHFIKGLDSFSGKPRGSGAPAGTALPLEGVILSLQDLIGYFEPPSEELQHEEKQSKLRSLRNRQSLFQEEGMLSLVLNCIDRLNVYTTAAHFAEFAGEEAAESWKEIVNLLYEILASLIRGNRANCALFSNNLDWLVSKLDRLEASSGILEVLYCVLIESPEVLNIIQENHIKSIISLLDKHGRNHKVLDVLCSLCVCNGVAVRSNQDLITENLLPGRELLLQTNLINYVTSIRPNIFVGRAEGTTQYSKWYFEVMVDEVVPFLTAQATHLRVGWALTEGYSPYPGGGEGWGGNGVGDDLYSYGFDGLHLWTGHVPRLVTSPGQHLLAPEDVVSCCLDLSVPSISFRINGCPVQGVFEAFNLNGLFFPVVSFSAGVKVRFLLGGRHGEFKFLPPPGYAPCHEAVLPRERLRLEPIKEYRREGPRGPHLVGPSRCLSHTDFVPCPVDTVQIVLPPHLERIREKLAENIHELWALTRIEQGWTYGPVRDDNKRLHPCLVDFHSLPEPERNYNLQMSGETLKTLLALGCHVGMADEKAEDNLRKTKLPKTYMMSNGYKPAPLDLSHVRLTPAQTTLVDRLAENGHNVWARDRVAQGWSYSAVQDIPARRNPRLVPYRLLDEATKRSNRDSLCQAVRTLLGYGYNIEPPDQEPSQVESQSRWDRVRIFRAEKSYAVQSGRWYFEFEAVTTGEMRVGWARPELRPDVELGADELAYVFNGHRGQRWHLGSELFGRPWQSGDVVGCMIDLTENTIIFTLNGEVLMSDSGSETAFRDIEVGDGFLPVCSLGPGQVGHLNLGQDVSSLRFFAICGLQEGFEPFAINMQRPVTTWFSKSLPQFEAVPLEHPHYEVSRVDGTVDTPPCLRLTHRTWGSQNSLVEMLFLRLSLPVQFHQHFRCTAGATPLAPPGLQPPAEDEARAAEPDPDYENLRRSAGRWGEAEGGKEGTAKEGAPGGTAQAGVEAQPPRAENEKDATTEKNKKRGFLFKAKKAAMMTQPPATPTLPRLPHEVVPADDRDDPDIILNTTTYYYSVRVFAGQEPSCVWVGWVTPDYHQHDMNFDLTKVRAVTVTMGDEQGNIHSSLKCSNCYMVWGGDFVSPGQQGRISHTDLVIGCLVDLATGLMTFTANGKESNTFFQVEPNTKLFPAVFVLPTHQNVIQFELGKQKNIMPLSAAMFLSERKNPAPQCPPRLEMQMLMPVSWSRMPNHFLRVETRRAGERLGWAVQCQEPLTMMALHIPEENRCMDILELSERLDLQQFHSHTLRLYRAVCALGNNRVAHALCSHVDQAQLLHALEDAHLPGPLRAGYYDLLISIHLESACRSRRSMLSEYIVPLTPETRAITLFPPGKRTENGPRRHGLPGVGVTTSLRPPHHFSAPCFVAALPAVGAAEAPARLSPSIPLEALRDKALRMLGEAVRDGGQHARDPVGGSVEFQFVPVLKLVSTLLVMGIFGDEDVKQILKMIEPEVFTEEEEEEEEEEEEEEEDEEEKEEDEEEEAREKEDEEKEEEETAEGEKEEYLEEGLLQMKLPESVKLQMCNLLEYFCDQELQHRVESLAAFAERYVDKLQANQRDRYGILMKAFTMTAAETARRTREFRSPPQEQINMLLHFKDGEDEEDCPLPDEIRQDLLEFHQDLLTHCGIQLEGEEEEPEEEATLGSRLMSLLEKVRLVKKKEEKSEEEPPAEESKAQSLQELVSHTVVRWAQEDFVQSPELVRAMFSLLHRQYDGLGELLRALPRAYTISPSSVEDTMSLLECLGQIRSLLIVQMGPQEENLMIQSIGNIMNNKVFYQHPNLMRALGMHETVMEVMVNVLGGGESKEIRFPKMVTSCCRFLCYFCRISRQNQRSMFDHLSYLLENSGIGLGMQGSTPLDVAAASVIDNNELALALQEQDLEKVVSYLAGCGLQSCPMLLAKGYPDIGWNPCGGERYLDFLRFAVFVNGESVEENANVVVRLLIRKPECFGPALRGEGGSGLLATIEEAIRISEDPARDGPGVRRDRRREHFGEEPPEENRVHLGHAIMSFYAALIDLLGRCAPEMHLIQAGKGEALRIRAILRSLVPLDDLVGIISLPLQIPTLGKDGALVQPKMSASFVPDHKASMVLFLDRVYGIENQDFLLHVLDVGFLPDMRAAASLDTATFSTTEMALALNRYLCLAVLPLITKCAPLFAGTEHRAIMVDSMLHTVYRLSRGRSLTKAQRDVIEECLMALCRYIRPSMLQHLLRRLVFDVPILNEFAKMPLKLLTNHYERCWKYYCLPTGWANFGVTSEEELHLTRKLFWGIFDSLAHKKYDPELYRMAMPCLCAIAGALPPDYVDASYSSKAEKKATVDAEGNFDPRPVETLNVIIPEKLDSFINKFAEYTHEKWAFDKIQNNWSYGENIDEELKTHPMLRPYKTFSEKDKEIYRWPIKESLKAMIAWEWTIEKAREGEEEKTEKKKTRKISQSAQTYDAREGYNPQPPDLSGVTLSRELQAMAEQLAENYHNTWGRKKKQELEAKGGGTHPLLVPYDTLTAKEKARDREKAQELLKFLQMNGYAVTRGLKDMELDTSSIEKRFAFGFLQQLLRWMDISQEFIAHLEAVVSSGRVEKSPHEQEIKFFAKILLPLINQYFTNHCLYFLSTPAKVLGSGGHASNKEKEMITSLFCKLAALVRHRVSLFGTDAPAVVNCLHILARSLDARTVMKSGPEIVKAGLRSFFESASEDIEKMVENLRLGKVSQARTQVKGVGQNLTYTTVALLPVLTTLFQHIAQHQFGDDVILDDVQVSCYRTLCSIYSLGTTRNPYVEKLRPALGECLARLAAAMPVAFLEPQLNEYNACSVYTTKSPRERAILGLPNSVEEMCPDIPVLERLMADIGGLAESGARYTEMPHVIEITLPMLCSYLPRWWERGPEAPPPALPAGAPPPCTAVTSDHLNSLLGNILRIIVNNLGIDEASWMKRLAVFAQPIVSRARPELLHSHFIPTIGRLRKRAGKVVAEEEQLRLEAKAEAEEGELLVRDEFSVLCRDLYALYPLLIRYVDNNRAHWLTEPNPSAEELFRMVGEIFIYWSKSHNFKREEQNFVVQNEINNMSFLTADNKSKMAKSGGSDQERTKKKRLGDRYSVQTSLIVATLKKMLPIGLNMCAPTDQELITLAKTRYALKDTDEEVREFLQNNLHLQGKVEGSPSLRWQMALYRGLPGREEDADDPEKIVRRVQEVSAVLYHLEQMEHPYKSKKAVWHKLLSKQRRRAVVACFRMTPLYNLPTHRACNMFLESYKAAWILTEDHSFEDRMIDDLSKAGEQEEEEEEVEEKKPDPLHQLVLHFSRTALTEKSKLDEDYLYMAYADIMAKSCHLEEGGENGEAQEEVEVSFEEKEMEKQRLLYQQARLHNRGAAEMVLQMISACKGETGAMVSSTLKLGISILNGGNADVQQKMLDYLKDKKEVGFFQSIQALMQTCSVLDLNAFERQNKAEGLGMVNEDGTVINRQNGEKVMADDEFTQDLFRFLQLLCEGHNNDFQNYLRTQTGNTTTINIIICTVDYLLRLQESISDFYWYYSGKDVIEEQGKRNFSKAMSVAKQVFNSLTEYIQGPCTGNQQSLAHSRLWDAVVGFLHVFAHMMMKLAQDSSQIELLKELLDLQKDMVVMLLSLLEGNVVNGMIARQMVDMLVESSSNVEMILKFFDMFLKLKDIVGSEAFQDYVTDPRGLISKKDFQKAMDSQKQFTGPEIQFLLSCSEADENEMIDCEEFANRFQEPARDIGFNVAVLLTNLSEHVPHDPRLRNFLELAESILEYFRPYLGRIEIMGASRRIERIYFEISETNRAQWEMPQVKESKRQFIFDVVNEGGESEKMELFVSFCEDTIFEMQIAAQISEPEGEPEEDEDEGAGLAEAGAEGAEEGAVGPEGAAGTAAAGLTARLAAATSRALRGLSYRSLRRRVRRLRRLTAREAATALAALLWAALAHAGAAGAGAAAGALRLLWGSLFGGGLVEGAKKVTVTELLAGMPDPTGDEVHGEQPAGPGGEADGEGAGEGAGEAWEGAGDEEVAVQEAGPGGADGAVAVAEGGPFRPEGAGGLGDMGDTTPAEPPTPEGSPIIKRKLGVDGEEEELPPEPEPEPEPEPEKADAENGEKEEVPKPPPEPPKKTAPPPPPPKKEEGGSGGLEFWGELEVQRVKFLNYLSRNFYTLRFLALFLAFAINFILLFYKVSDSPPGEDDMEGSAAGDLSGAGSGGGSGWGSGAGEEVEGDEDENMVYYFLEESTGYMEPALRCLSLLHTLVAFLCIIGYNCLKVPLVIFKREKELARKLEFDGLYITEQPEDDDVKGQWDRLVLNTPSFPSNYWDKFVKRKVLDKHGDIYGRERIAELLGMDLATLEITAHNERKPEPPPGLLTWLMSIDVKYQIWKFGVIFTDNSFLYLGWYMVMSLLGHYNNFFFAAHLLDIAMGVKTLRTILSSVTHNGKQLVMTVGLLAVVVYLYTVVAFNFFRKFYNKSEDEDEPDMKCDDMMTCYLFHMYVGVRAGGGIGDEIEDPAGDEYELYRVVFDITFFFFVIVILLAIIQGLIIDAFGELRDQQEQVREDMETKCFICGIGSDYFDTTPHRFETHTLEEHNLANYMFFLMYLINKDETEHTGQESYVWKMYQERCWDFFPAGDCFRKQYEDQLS

Substance “apo-calmodulin (from UniProt P0DP23 1-149) (natural protein)” had a single-channel open probability (Po) in planar lipid bilayers with 1 uM calmodulin, 40 nM free Ca2+, 2 mM ATP of 2 fold.
